Results reported in US20240003880A1 (published 2024).

Target: SARS-CoV-2 nucleocapsid phosphoprotein (SARS-CoV-2, UniProt P0DTC9 1-419)
Assay: SPR

B1: antibody 9-17 (antibody, V domains shown)
VH: QVQLVQSGAEVKKPGSSVKVSCKASGGTFSNYVISWVRQAPGQGLEWMGGIIPIFGTAKYAQKFQGRVAITADESTSTAYMEVSSLRSEDTAVYYCARAGYCSGGSCRRPSDYYGMDVWGQGTTVTVSS
VL: not shown
Binder B1 has a Kd of 0.18 nM.

B2: antibody 9-24 (antibody, V domains shown)
VH: EVQLVESGGGLVQPGGSLRLSCAASGFTFSDSAVHWVRQASGKGLEWVGRIRNRNNNYATAYAASVKGRFTISRDDSENMAYLQMNGLKTEDTAIYYCTDLLAYWGQGTLLTVSS
VL: SYELTQPPSVSVSPGQTARITCSADALPKQYAYWYQQKAGQAPVLVIYKDNERPSGIPERFSGSSSGTTVTLTISGVQAEDEADYYCQSADSSGGYRVFGGGTKLTVL
B2 gave a Kd of 2.36 nM.

B3: antibody 9-11 (antibody, V domains shown)
VH: QVQLVQSGAEVKKPGASVKVSCKASGYTFTSYAISWVRQAPGQGLEWMGWISAYTGNTNYAQKLQGRVTMTTDTSTSTAYMELRSLRSDDTAVYYCARNGWDYDTSGTHDYWGQGTLVTVSS
VL: not shown
B3 showed a Kd of 0.08 nM.

B4: antibody 9-15 (antibody, V domains shown)
VH: QVQLVQSGAEVKKPGSSVKVSCKASGGTFSSYAISWVRQAPGQGLEWMGGIIPIFGTANYAQKFQGRVTITAEESTSTAYMELSSLRSEDTAVYYCARDGWAAAGPDTSLLGTFDIWGQGTMVTVSS
VL: QSALTQPPSVSGSPGQSVTISCTGTSSDVGSYNRVSWYQQPPGTAPKLIIYEVSNRPSGVPDRFSGSKSGNTASLTISGLQAEDEADYYCSSYTSSSTYVVFGGGTKLTVL
B4 gave a Kd of 0.1 nM.
